In the emibetuzumab library of Makowski et al. (2022):

B1: VH:VL chains; a variant is named by its letters at X, in order (parent)
chain 1: QVQLVQSGAEVKKPGASVKVSCKASGYTFTDYXMHWVRQAPGQGLEWMGXVNPNXXXTTYNQKFEGRVTMTTDTSTSTAYMELRSLRSDDTAVYYCARXNXLDXWGQGTTVTVSS
chain 2: DIQMTQSPSSLSASVGDRVTITCSVSSSVSSIYLHWYQQKPGKAPKLLIYSTSNLASGVPSRFSGSGSGTDFTLTISSLQPEDFATYYCQVYSGYPLTFGGGTKVEIK

Variants of: B1
Experiment: yeast display scFab, FACS + sequencing
Procedure, shortened: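 For the non-specific binding call, a heavy-chain CDR mutant scFab library on the yeast surface was FACS-sorted and samples from two replicates were deep sequenced. Cells were labelled with anti-Myc and either biotinylated ovalbumin (260 μg/mL in PBSB, 3 h, room temperature) or soluble membrane proteins (130 μg/mL, 20 min on ice), with gates on the top 25% and bottom 10% of binders. With membrane protein and ovalbumin samples pooled, a sequence in ≥3 of 4 positive samples and no negatives was scored positive, and the converse rule scored negatives.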
With YRKRGSGV the non-specific binding call was “binds”.
With YRREGSAV the non-specific binding call was “binds”.
For VRKGGSVY, the non-specific binding call was “binds”.
For YRRGDAAF, the non-specific binding call was “binds”.
For VRKKGYVY, the non-specific binding call was “binds”.
For YRRGDDGD, the non-specific binding call was “binds”.
In the case of YRREGSVV, the non-specific binding call is reported as “binds”.
With VRRGDAGY the non-specific binding call was “no binding”.
For YRKGSSVD, the non-specific binding call was “binds”.
With YRKGSSVS the non-specific binding call was “binds”.
For YRKGGSWS, the non-specific binding call was “binds”.
With FRRGDALD the non-specific binding call was “binds”.
For FRKRGSAV, the non-specific binding call was “binds”.
In the case of SRRETFVF, the non-specific binding call is reported as “binds”.
With VRRGDDVY the non-specific binding call was “no binding”.
For YRKGGFSS, the non-specific binding call was “binds”.
With YRKKTDWS the non-specific binding call was “binds”.
With DRREDALD the non-specific binding call was “no binding”.
In the case of YRKGSASD, the non-specific binding call is reported as “binds”.
With FRRGDAAV the non-specific binding call was “binds”.
For DRREDSSA, the non-specific binding call was “no binding”.
With YRKGSSGD the non-specific binding call was “binds”.
For YRKGSSGA, the non-specific binding call was “binds”.
For YRKGSSGV, the non-specific binding call was “binds”.
For YRKGSSGF, the non-specific binding call was “binds”.
For YRKGGAWY, the non-specific binding call was “binds”.
With FRKRGAWY the non-specific binding call was “binds”.
In the case of YRKKSVGA, the non-specific binding call is reported as “binds”.
With YRKRTFGA the non-specific binding call was “binds”.
With YRRGDSGV the non-specific binding call was “binds”.
In the case of FRREGSSD, the non-specific binding call is reported as “binds”.
In the case of YRKGGSGY, the non-specific binding call is reported as “binds”.
For YRKGGSGV, the non-specific binding call was “binds”.
In the case of YRKGGSGA, the non-specific binding call is reported as “binds”.
In the case of YRREGAGD, the non-specific binding call is reported as “binds”.
For FRKGGSGV, the non-specific binding call was “binds”.
For FRKGGSGD, the non-specific binding call was “binds”.
For VRRGDFWA, the non-specific binding call was “no binding”.
For YRKGTAGD, the non-specific binding call was “binds”.
With YRRGDFWA the non-specific binding call was “no binding”.
With YRREGSLA the non-specific binding call was “binds”.
With YRREGSLD the non-specific binding call was “binds”.
For VRRAADSD, the non-specific binding call was “binds”.
In the case of YRKRGAVD, the non-specific binding call is reported as “binds”.
In the case of VRKRGSSS, the non-specific binding call is reported as “binds”.
With YRRGASSS the non-specific binding call was “binds”.
With VRRASSVA the non-specific binding call was “binds”.
With YRKRSVVF chain 1 S115F the non-specific binding call was “binds”.
In the case of FRKGGSLD, the non-specific binding call is reported as “binds”.
With YRRGDSLY the non-specific binding call was “binds”.
For YRRGDAGS, the non-specific binding call was “binds”.
In the case of YRRGDAGF, the non-specific binding call is reported as “binds”.
With VRKRGALD the non-specific binding call was “binds”.
For DRRGDSLV, the non-specific binding call was “no binding”.
In the case of YRKGSSWD, the non-specific binding call is reported as “binds”.
For YRREGSGV, the non-specific binding call was “binds”.
With DRRGDDVF the non-specific binding call was “no binding”.
In the case of YRKGGDLY, the non-specific binding call is reported as “no binding”.
With VRKGGVAV the non-specific binding call was “binds”.
In the case of YRKGGFVA, the non-specific binding call is reported as “binds”.
For VRRETVSD, the non-specific binding call was “binds”.
In the case of DRRGDAVY, the non-specific binding call is reported as “no binding”.
With DRRGDAVA the non-specific binding call was “no binding”.
In the case of YRKGSAWD, the non-specific binding call is reported as “binds”.
For DRRANFLY, the non-specific binding call was “binds”.
In the case of YRRGASWD, the non-specific binding call is reported as “binds”.
In the case of FRKRGSVF, the non-specific binding call is reported as “binds”.
For ARKTGAGA, the non-specific binding call was “binds”.
In the case of YRKRGSLV, the non-specific binding call is reported as “binds”.
For YRKRGSLY, the non-specific binding call was “binds”.
With YRKGGSVS the non-specific binding call was “binds”.
For FRRGDSAA, the non-specific binding call was “binds”.
With YRRGAAGD the non-specific binding call was “binds”.
With VRKGSSGD the non-specific binding call was “binds”.
For VRKGGSGV, the non-specific binding call was “binds”.
With YRRESSGV the non-specific binding call was “binds”.
With YRRESSGY the non-specific binding call was “binds”.
For YRKRGAGD, the non-specific binding call was “binds”.
For YRKRGAGA, the non-specific binding call was “binds”.
In the case of FRKRSFSS, the non-specific binding call is reported as “binds”.
With DRREGYGA the non-specific binding call was “binds”.
With YRRGDSAD the non-specific binding call was “binds”.
With FRRGDAVA the non-specific binding call was “binds”.
With YRRGAAWA the non-specific binding call was “binds”.
For DRKGGDWS, the non-specific binding call was “binds”.
For DRRGDSSA, the non-specific binding call was “no binding”.
With YRKRGSSA the non-specific binding call was “binds”.
With FRRGDAGD the non-specific binding call was “binds”.
For YRKKGALY, the non-specific binding call was “binds”.
In the case of ARKGSSGD, the non-specific binding call is reported as “binds”.
In the case of VRRGDSSD, the non-specific binding call is reported as “no binding”.
For YRRAADSD, the non-specific binding call was “binds”.
In the case of YRREGDWA, the non-specific binding call is reported as “binds”.
For YRKGGSAA, the non-specific binding call was “binds”.
In the case of ARRGAYGV, the non-specific binding call is reported as “binds”.
In the case of YRRGAAAV, the non-specific binding call is reported as “binds”.
With YRRGAAAA the non-specific binding call was “binds”.
With FRKGSAVD the non-specific binding call was “binds”.
With VRRANFLD the non-specific binding call was “binds”.
In the case of SRKKGDGS, the non-specific binding call is reported as “binds”.
In the case of YRRGDASD, the non-specific binding call is reported as “binds”.
For DRRGDDGV, the non-specific binding call was “no binding”.
With DRRGDDGA the non-specific binding call was “no binding”.
In the case of FRKGTALD, the non-specific binding call is reported as “binds”.
In the case of VRKKGVSS, the non-specific binding call is reported as “binds”.
In the case of YRKGSAAA, the non-specific binding call is reported as “binds”.
For YRKGSSAA, the non-specific binding call was “binds”.
For YRKRGDVV, the non-specific binding call was “binds”.
For YRRGASGV, the non-specific binding call was “binds”.
With YRRANFLD the non-specific binding call was “binds”.
In the case of YRKKGDLA, the non-specific binding call is reported as “binds”.
With DRRGDASD the non-specific binding call was “no binding”.
In the case of YRKRGSVF, the non-specific binding call is reported as “binds”.
For YRKRGSVV, the non-specific binding call was “binds”.
With ARRGAAGV the non-specific binding call was “binds”.
With YRKRGAAD the non-specific binding call was “binds”.
In the case of YRKRGAAA, the non-specific binding call is reported as “binds”.
In the case of YRKRGVGV, the non-specific binding call is reported as “binds”.
For VRKGGSLD, the non-specific binding call was “binds”.
In the case of YRRGDAWY, the non-specific binding call is reported as “binds”.
With YRRGDAWD the non-specific binding call was “binds”.
For SRKGGDAA, the non-specific binding call was “no binding”.
With YRKGSAGD the non-specific binding call was “binds”.
For YRRESAGF, the non-specific binding call was “binds”.
With YRKGSALD the non-specific binding call was “binds”.
In the case of YRKGSSLF, the non-specific binding call is reported as “binds”.
In the case of YRRGDSSA, the non-specific binding call is reported as “binds”.
